According to patent US20210054016, “Enzymatic RNA Capping Method” (NEW ENGLAND BIOLABS, INC., published 2021):

Biological target: Vaccinia capping enzyme (VCE) (Vaccinia virus, UniProt P04298;P04318 P04298:1-844,P04318:1-287)
Test: Cap50, 37 C, 30 min, 500 nM RNA, 1 mM MgCl2; 0.94 at 45 C, 4.08 at 50 C, 30.00 at 55 C

Binder GUAGAACUUCGUCGAGUACGCUCAA (ssRNA, 5' triphosphate) [RNA1] has an EC50 of 3.06 nM.
